experiment: soluble on expression in E. coli; label from the status in PepcDB or PDB records

Sequence	soluble on expression in E. coli
MSDKLPYKVADIGLAAWGRKALDIAENEMPGLMRMRERYSASKPLKGARIAGCLHMTVETAVLIETLVTLGAEVQWSSCNIFSTQNHAAAAIAKAGIPVYAWKGETDEEYLWCIEQTLYFKDGPLNMILDDGGDLTNLIHTKYPQLLPGIRGISEETTTGVHNLYKMMANGILKVPAINVNDSVTKSKFDNLYGCRESLIDGIKRATDVMIAGKVAVVAGYGDVGKGCAQALRGFGARVIITEIDPINALQAAMEGYEVTTMDEACQEGNIFVTTTGCIDIILGRHFEQMKDDAIVCNIGHFDVEIDVKWLNENAVEKVNIKPQVDRYRLKNGRRIILLAEGRLVNLGCAMGHPSFVMSNSFTNQVMAQIELWTHPDKYPVGVHFLPKKLDEAVAEAHLGKLNVKLTKLTEKQAQYLGMSCDGPFKPDHYRY	soluble
MGSDKIHHHHHHMIEFKEVSKRFGSTLALDKLDANFPTGKIIGLFGPNGAGKSTSIKMIAGLNRPDQGQVVIDGELPRMSKAQIAYLPEIDHLYPWMTIGQAAGFTRSFYVDWDNDKYHELLKYLNLNAEMKIGKISKGQRAKTKLLLTAARRAPYLLMDEPLSGIDILTREEIINTLVRDYREGEQTIIISTHEIAEVESLVDEVFFIDQGKIMLSGSAEEFRVERGQSLVEIMKEAFRHADQ	not soluble
SEILISAVATDLISRFISSVTQNYRNHIHKEDDRRRLERILLRMHSVVEEAGGRHITNQGMILQLKGLVEGFYLGYYMLDKIKFQPPEYEVSHEIQSFALSACNSAKRFRFADAISKRTPVAFGSRSRTNLKDVVDGLETKIADMREFVILLGSHPRLPRQPYSTYLYIDNCMFGRRIEKEQVINFLLCNDPHDPYVSILPIIGPQRIGKKTLVQHACLDERVRDCFSHIFFFKEDDLKTGELSLNSKASQGKYLFVIEFIWDVDEAAWTKFQSYLQNMPATGIKVVVIGRTEDIAKFGTSQPIRVKRLSEEEYWYYFKALAFGSMDPDEHPKLASLAMQLSTEMNGSFLGATMFGELLRANPNTQFWKRILLFLRELARKHLTSSGLHPEDLFERNIPVDLSRIAVVDGQVQDFMVYDVRVAGPAEGELPKLTSRDILLGGDIPVEDKFDVLVWRSRIPPYCNYIVTYEKQKPRRMVGKRNTIYL	soluble
MGSDKIHHHHHHVKLAAVDIGSNAIRFQVSKILEYNGMIMFKKMEYVRFPLRLGEDVFRLGMISAEKEMKFIKLIQTFKNLFELYEVDDYMISATSAMRESKNGRDIVLKVKGLVGVDIDIIDGDKEAELINTVLHNELDDNSYIHIDVGGGSTELNLFVNRKKIAARSFKIGSVRRLQGLDAPEEWESMKQWVKDNIDKLPKPVTAIGTGGNIGKIFELGTTEKSKKDKRMISLKKIEEVQHNISQYSYEDRINVLMLNSDRADVIIPASEIYTSVMEFAKAKNMLVPEVGLKDGLMLMLYERNKHLHITDLDSIRNVNKYQK	not soluble
MSLSIWGLVNEEDAEIDEDDLSKQEDGGEQPLRKVRTLAQSKPSDKEVILKTDGTFGTLSGKDDSIVEEKAYEPDLSDADFEGIEASPKLDVSKDWVEQLILAGSSLRSVFATSKEFDGPCQNEIDLLFSECNDEIDNAKLIMKERRFTASYTFAKFSTGSMLLTKDIVGKSGVSIKRLPTELQRKFLFDDVYLDKEIEKVTIEARKSNPYPQISESSLLFKDALDYMEKTSSDYNLWKLSSILFDPVSYPYKTDNDQVKMALLKKERHCRLTSWIVSQIGPEIEEKIRNSSNEIEQIFLYLLLNDVVRASKLAIESKNGHLSVLISYLGSNDPRIRDLAELQLQKWSTGGCSIDKNISKIYKLLSGSPFEGLFSLKELESEFSWLCLLNLTLCYGQIDEYSLESLVQSHLDKFSLPYDDPIGVIFQLYAANENTEKLYKEVRQRTNALDVQFCWYLIQTLRFNGTRVFSKETSDEATFAFAAQLEFAQLHGHSLFVSCFLNDDKAAEDTIKRLVMREITLLRASTNDHILNRLKIPSQLIFNAQALKDRYEGNYLEGHHHHHH	not soluble
MSAAPLVGYSSSGSEDESEDGMRTRPGDGSHRRGQSPLPRQRFPVPDSVLNMFPGTEEGPEDDSTKHGGRVRTFPHERGNWATHVYVPYEAKEEFLDLLDVLLPHAQTYVPRLVRMKVFHLSLSQSVVLRHHWILPFVQALKARMTSFHRFFFTANQVKIYTNQEKTRTFIGLEVTSGHAQFLDLVSEVDRVMEEFNLTTFYQDPSFHLSLAWCVGDARLQLEGQCLQELQAIVDGFEDAEVLLRVHTEQVRCKSGNKFFSMPLK	soluble

Reference: the DeepSol protein solubility set
